Patent US20220387578A1 (VANDERBILT UNIVERSITY, published 2022)

Legend:
eHead_H1_g2.10_mC = target: T1, eHead_H1_g2.10_mC; assay: SPR; y axis without title or unit
T1 chain: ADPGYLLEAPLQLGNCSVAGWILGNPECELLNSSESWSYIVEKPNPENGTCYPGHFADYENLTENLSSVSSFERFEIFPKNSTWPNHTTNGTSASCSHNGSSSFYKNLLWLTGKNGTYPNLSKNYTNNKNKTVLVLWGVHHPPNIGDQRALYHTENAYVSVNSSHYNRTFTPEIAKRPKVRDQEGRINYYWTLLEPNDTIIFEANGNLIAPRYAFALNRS

eHead_H1_v3.0_mC = target: T2, eHead_H1_v3.0_mC; assay: SPR; y axis without title or unit
T2 engineered HA head domain: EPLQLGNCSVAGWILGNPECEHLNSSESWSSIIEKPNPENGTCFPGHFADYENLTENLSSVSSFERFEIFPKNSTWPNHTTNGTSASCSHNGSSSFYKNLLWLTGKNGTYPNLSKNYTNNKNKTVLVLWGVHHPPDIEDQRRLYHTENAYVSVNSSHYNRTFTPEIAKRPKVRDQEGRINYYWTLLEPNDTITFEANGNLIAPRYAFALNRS

eHead_H1_v3.1_KO1_mC = target: T3, eHead_H1_v3.1_KO1_mC; assay: SPR
T3 chain: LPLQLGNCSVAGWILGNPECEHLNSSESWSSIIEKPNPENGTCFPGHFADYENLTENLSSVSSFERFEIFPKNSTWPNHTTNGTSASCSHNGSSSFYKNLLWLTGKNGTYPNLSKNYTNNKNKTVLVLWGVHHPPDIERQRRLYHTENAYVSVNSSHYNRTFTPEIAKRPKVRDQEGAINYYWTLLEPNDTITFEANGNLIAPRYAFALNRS

eHead_H1_v3.1_KO3_mC = target: T4, eHead_H1_v3.1_KO3_mC; assay: SPR
T4 chain: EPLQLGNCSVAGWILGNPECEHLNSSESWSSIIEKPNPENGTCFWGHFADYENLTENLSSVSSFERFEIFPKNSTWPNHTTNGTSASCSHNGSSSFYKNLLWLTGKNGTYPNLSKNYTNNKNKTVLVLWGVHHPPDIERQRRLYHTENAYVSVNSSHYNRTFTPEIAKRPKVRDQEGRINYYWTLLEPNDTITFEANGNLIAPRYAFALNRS

B1: FluA20 (as used in the SPR experiments of Example 4) (antibody, V domains shown)
VH: QVQLQESGPGLVKPSETLSLTCSVSGVSVTSDIYYWTWIRQPPGKGLEWIGYIFYNGDTNYNPSLKSRVTMSIDTSKNEFSLRLTSVTAADTAVYFCARGTEDLGYCSSGSCPNHWGQGTLVTVSS
VL: DIQMTQSPSSLSASIGDRVTITCRPSQNIRSFLNWFQHKPGKAPKLLIYAASNLQSGVPSRFSGSGSGTEFTLTIRSLQPEDFATYYCQQSYNTPPTFGQGTKVEIK
binding result (eHead_H1_g2.10_mC): binds | binding result (eHead_H1_v3.0_mC): binds | binding result (eHead_H1_v3.1_KO1_mC): no binding | binding result (eHead_H1_v3.1_KO3_mC): no binding
